Source: publication doi:10.1101/2024.09.23.614597

Target: PelC lipoprotein (P. aeruginosa)
Assay: cryo-EM structure

Substance: PelC lipoprotein (natural protein)
- stoichiometry N: 12 subunits
